Measured values reported in the nanobody polyreactivity screen of Harvey et al. (2022).

Assay: yeast display, Sf9 membrane polyspecificity reagent, FACS + sequencing; frameworks hold sequencing errors
In short: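 After 36–48 hours of galactose induction, yeast (Saccharomyces cerevisiae BJ5465) displaying a synthetic nanobody library were stained at 4 °C for 1 hour with 10% biotinylated, detergent-solubilized Sf9 membrane reagent. Streptavidin microbeads enriched the stained cells before FACS sorting into low and high (top ~1%) gates on anti-HA and streptavidin fluorescence. Each clone's polyreactivity label reflects its gate of origin.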

Sequence | polyreactivity (PSR sort gate)
HVQLVESGGGLVQAGGSLRLSCAASGIIFRYKALGWYREAPGKERELVAAISVSGGSTYYADSVKGRFTISRDNAKNTVDLQMNSLKPEDTAVDYCAALLYRYGVHQAEHDYWGQGTQVTVSS | high polyreactivity
QVQLVESGGGLVQAGGSLRLSCAASGFTLRKYAMGWYRQAPGKEREFVATSSSRAASTYYADSVKGRFTISRDNAQNPVYLQMNSLNQEDTAVYYCNKLSPYRGFYWGQGTQVTVSS | high polyreactivity
QVRLVETGGGLVQAGGSLRLSCAASGSIFLIYDMGWYRQAPGKEMELVAAISNSVGSTYADSVKGRFTMSRDNAKNTVYLQMNSLKPEDTAVYYCNADYGPIDGRGGYWGQGTQVTVSS | low polyreactivity
QVQLVESGGGLVHAGGSLRLSCAASGSIFFIYAMGGYRPAPGTERELVARISQGGASPYYADSVKGRFTISRDNAKTTVYLQMNSLKPEDTVVYYCAAGYTNTRLRPKGYGYYYWGQGTQVTVSW | high polyreactivity
QVQLVESGGGLVQAGGSLRLSCAASGSICGRYAMGWYRQAPGKDRELVAAIRWRSGSTYYADSVKGRFTISRDNAKNSVYLHMNSLKPEDTAVYYCAVQRSYVGPRQYNYWGQGTQVTVSS | high polyreactivity
QVQLVESGGGLVQAGGSLRLSCAASGSIFSSNAMGWYRQAPGTTNYADSVKGRFTISRDNAKNTVYLQMNSLKPEDTAVYYCAKDYVLFQYVDFQDDDYWGQGTQVTVSS | low polyreactivity
QVQLVESGGGLVQAGGRLRLSCAASGSTIRTYARGWYRQAPGKERELVAAITNSDGSTYYADSVKGRFTISRDNAKNTVYLQMYSLKPEDTAVYYCAAYYYPLGYDYWGQGTQVTVSS | low polyreactivity
QVQLVESGGGLVQAGGSLRLSCAASGFISGYYTMRWYRQAPGKARELVAVINSGGSTYYADSVKGRFTISRDNAKNTVYLQMNSLKPEDTAVYYCAKLGGKYSRYYYWGQGTQVTVSS | low polyreactivity
QVQLVESGGGLVQAGGSLRLSSAASGFIFDFYTMGWYRQAPGKERELVAAITWSGDSTYYADSVKGRFTISRDNAKNTVYLQMNSLKPEDTAVYYCASDLSYNPGYDYWGQGTQVTVSS | low polyreactivity
QVQLVESGGGLVQAGGSLRLSCAASGSIFGSNTMGWYRQAPGKERELVAAINSSGGSTYYADSVKGRFTISRDNAKNTVYLQMNSLKPEDTEVYYCNAASYRFFPYLYYYWGQGTQVTVSS | high polyreactivity
QVQLVESGGGLVQAGGSLRLSCAASGSTLKYYAMGRYRQAPGKEMELVAAIRNLGGRTYYADSVKGRFTISRDNAKNTVYLQMNSLKPEDTAVYYCAAQFQSTAVGRDNYWGQGTQVTVSS | high polyreactivity
QVQLVESGGGLVQAGGSLRLSCAASGFIFWGNAMGWYRQAPGKERELVAAISSSSGSTYYADSVKGRFTISRDNAKNTVYLQMNSLKPVDSAVYDCAVDTPRSYRAQGAYNYWGQGTQVTVSS | low polyreactivity
QVQLVESGGGLVQAGGSLRLSCAASGITFRKYAMGWYRKAPGKERELVAAISVSGGSTYYADSVKGRFTISRDNAKNTVYLQMNSLKPEDTAVYYCATGRSTDKGYYYWGQGTQVTVSS | high polyreactivity
QVQLVESGGGLVQAGGSLRLSCAASGRIFRTNTMGWYRQAPGKERELVAAITRGGSTYYADSVKGRFTISRDNAKNTVYLQMNSLKPEDTAVYYCAASRYYNSVHNGGDYWGQGTQVTVSS | high polyreactivity
QVQLVESGGGLVQAGGSLRLSCAASGSIFKYYTMGWYRQAPGKEREFVAAITRSGGSTYYADSVKGRFTISRDNAKNTVYLQMNSLKPEDTAVYYCAARTIRDQTVRFGHWGQGTQVTVSS | high polyreactivity
KVQLVESGGGLVQAGGSLRLSCAASGRIFKYYAMGWYRQAPGKEMELVARISRSSGNTYYADSVKGRFTISRDNAKKTVYLQMNSLIPEDTAVYYCATVPHYNGFNYWGQGTQVTVSS | high polyreactivity

Sequence | polyreactivity (PSR sort gate)
QVQLVESGGGLVQAGGSLRLSCAASGRTFSWYAMGWYRQAPGKERELVAAITRDGGNTYYADSVKGRFTISRDNAKNTVYLQMNSLKPEDTAVYYCAAAPTTGKRPGYYYWGQGTQVTVSS | high polyreactivity
QVQLVESGGGLVQAGGSLRLSCAASGSTFGVSAMGWSRQAPGKERELVAAISGRGGRTYYADSVKGRFTISRDNAKNTVYLLMNSLKPEDTAVYYFAVVGSAYQSRYDYWGQGTQVTVSS | high polyreactivity
QVQLVESGGGLVQAGGSLRLSCAASGFTFHLYAMGWYRQAPRKERELVAAISQSGDSTYYADTVKGRFTISRDNAKNTFYLQMNSLKPEDTAVYYFNADNDCVVWTYPFDFDYWGQGTQVTVSS | low polyreactivity
QVQLVESGGGLVQAGGSLRLSCAASGFTFYSYAMGWYRQAPGKERELVAAITQSGGSTYYADSVKGRFTISRDNAKNTVYLQMNSLKPEDTAVYYCAADIYNDYDYGYYYWGQGTQVTVSS | low polyreactivity
QVQLVESGGGLVQAGGSLRLSCAASGSTFFRYARGWYIQAPGKEREFVAAISKRGGSTHYADSVKGRFTISRDNAKKTVYLQMNSLKPADTAVYYCAASSFTSSYNYWGQGTQVTVSS | high polyreactivity
QVQLVESGAGLVQAGGSLRLSCAASGRTIGVYAMGWYRQAPGKERELVAAISWSGGTTYYADSVKGRFTISRDNAKNTVYLQMNSLKPEDTAVYYCAADSYTEVDYWGQGTQVTVSS | low polyreactivity
QVQLVESGGGLVQAGGSLRLSCAASGSTFWVNAMGWYRQAPGKERELVAAITVRGTSTYYADSVKGRFTISRDNAKNTVYLQMNSLKPEDTAVYYCAKGSLGSTRYYYWGQGTQVTVSS | low polyreactivity
QVQLVESGGGLVQAGGSLRLSCAASGFTFYAYAMGWYRQAPGKERELVAVISQSGTRTYYADSVKGRFTISRDNAKNTVYLQMNSLKPEDTAVYYCAADTYSPDREYGYWGQGTQVTVSS | high polyreactivity
QVQLVESGGGLFQAGGSLRLSCAASGSTFYNYAMGWYRQAPGIERELVAAISSGGSTNYADSVKGRFTISRDNAKYTVFLQMNSLKPEDSAVYYCARRHRVYASRNGHDYWGQGTQVTVSS | low polyreactivity
QVQLVESGGGLVQAGGSLRLSCAASGSTFYAYAMGWYRQAPGKERELVAAITSRGGSTYYADSVKGRFTISRDNAKYTVYLELISLKPEDTAVYYCDARTCWWSRYYGSWGQGTQVTVSS | high polyreactivity
QVQLVESGGGLVQAGGSLRLTCAASGSIFTGYAMRCYRQAPGTERELVAAIRTRGGSPYYADSVKGRFTISRDNAKNTVYLQMNSLKPEDTALYYCAKRYYGWYGNFDYWGQGTQVTVSS | high polyreactivity
QVQIVESGGGLVQAGGSLRVSCAASGITFGNYDMGWYRQAPGKERELVAAITGSGGRTYYADSVKGRFTISRDNEKNTVYLQMNSLKPEDTAVYYCNRRQYGRKKQYDYWGQGTQVTVSS | high polyreactivity
QVQLVESVGCLVQAGGSLRLSCAASGRIFTSNAMGWYRQAPGKERELVAAITRRGGTTYYADSVKGRFTISRDNSKNTVYFQMNSLNPEDTAVYYCATIITVASWYDYWGQGTQVTVSS | low polyreactivity
QVQLVESGGGLVQAGGSLRLSCAASGRTFRLYAMGWSRPAPGKERELVAAISSGGSTYYADSVKGRFTISRDNAKNTVYLQMNSLKPEDTAVYYCFAWVYQFGYWGQGTQVTVSS | low polyreactivity
QVQLVESGGGLVQAGGSLRLSCAASGFTFYDYAMGWYRQAPGKERELVAAISDSGGITYYADSVTGRFTISRDNAKNTVYLQMNSLKPEDTAVYYCAADFATPGPEYDYWGQGTQVTVSW | low polyreactivity
QVQLVESGGGLVQAGGSLRLSCAASGFTFYVYAMGWYRQAPGKERELVAAISRGGSTYYADSVKGRFTISRDNAKNTVYLQMNSLKPEDTAVYYCNRVPYVSSSKVRYSNGFDYWGQGTQVTVSS | low polyreactivity
